The record followed here is publication doi:10.1101/2023.08.10.552896.

Read-outs that look alike come from different tables or passages of the source.

In experiment [1] the target is Transthyretin, wild type, first purification protocol (TTR1st) (human (by the printed accession P02766)) (UniProt P02766). Kind of experiment: SEC. In general terms: In gel filtration, larger molecules generally elute earlier.
Experiment [2] has the same target. The experiment in a line: SEC. This is another data set of the same source.

Consider “Transthyretin, wild type, first purification protocol (TTR1st) (from UniProt P02766 21-147) (enzyme)”, for which, in experiment [1], the percent of the sample as oligomers (oTTR) came to 7%, the percent of the sample as tetramer turned out to be 93% and the stoichiometry N (usually a count of units in the complex or per binding partner) was determined as 4. Besides, in experiment [2], the percent of the sample as oligomers (oTTR) worked out at 4%.
